Data: patent US20240425607A1, “IL-18BP ANTAGONIST ANTIBODIES AND THEIR USE IN MONOTHERAPY AND COMBINATION THERAPY IN THE TREATMENT OF CANCER” (Compugen Ltd., priority 2023, published 2024)

Columns and labels:
[1] = tested on: MC38ova tumor-bearing mice; assay: Peripheral effects in MC38ova tumor-bearing mice: anti-mIL18BP vs engineered mIL-18; assay type: in vivo; details: mouse, in vivo
Experimental: Nine days pre-inoculum, vials of MC38ova^dim cells were thawed into RPMI media containing 10% FBS, 1% Glutamax, 1% Sodium pyruvate, 1% HEPES, 1% NEAA, 0.01% 2-mercaptoethanol, 1% Penicillin-Streptomycin. Following centrifugation at 300×g for 8 min, cell pellet was resuspended, counted and seeded in a T175 flask. On days −7, −5 and −2, the cells were detached and re-seeded at 6-8*10^6 cells/T175 flask. On the day of inoculum, the cells were detached, centrifuged at 300×g for 10 min, filtered through […] cell strainer and resuspended in RPMI.
Experiments were performed in C57Bl/6 (female, 6-8 wk, Envigo). Mice were anesthetized with 10% Ketamine and 10% Xylazine mixture injected intraperitoneal. Next, mice were inoculated with MC38ova cells (1.2×10^6) subcutaneously to the right flank in 50 μl/mice.
At tumor volume of −120 mm^3 (day 9), mice were randomly assigned into treatment groups. Mice were treated with Synagis mouse IgG1, k isotype control 15 mg/kg (IP), anti-mIL18 bp 837 mIgG1 15 mg/kg (IP), PBS (SC), or engineered IL-18 (SC) 0.32 mg/kg. Treatments were injected twice a week for a total of 6 treatments. […] Mice were weighed every week. Mice were bled before the 4th treatment, 4 hours after the 4th treatment, and 24 hours after the 4th treatment. Serum was analyzed for presence of IFNg, TNFα, MCP1, IL6 by Cytometric Bead Array (CBA) Mouse Inflammation Kit (BD Cat. No. 552364). Spleens were harvested from mice 24 hours after the 4th treatment and weighed. For IL15 experiments, mice were treated with a single dose of 0.5 μg, 1.5 μg of IL15, or with a mix of 0.5 μg IL15 and 2.33 μg IL15R.
Spleens were crushed into 40 μm filters and red blood cells were lysed. Single-cell suspensions were seeded into a 96-well V-bottomed plate. Cells were labeled for viability and dead cells were excluded using the Fixable Viability Stain 450 (BD Bioscience Cat #562247). To block Fcγ receptors, cells were incubated with 10 μg/mL of Purified Rat Anti-Mouse CD16/CD32 (Mouse BD Fc Block™, BD Bioscience Cat #553142) in cold 1×PBS buffer for 10 minutes. Various immune populations were stained with anti-mouse antibodies (Table 17). After washing (1% BSA, 0.1% sodium azide, in PBS), cells were acquired on FACS Fortessa cytometer (BD Bioscience). Analysis was done using FlowJo.

IL18-BP = target: T1, IL18-BP (Mus musculus, UniProt Q9Z0M9); details: cited from earlier work
T1 sequence (Q9Z0M9 29-193): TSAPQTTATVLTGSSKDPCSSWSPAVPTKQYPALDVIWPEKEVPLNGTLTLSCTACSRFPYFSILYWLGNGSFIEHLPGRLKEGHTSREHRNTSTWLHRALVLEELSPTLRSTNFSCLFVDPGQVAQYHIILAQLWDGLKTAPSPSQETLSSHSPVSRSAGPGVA

B1: engineered mIL-18: Engineered IL-18 of US 20190070262A1, SEQ ID NO: 1920 (protein)
chain: HFGRLHCTTAVIRNINDQVLFVDKRQPVFEDMTDIDQSASEPQTRLIIYAYGDSRARGKAVTLSVKDSKMSTLSCKNKIISFEEMDPPENIDDIQSDLIFFQKRVPGHNKMEFESSLYEGHFLACQKEDDAFKLILKKKDENGDKSVMFTLTNLHQSHHHHHH
With B1 the “Activation state of splenic lymphocytes vs control” value [1] was “significantly more CD69+CD4+ T-cells, CD69+CD8 T-cells, CD69+B Cells, CD107+NK cells, and CD69+CD107+ NKT cells”, the “Serum levels of IL18, 4 hours after the 4th treatment” value [1] was “very high serum levels of IL18” and the “Serum levels of IL18, 24 hours after the 4th treatment” value [1] was “returned to baseline”. For the same molecule, the “Spleen enlargement vs control, average” value [1] was 4.9 folds, the “Splenic CD45+ immune cells, CD3+ T cells and CD19+ B cells vs control” value [1] was “larger number of CD45+ immune cells, as well as CD3+ T cells and CD19+B cells” and the “Binding to IL18-BP” value (IL18-BP) was “not to bind IL18-BP”.
